In patent publication US20260317434 (published 2026):

B1: 3G5 (antibody, V domains shown)
VH: EVQLVESGGVLVKPGGSLKLSCAASGFTFSDYAMSWVRQTPEKRLEWVATITDGGSYAYYTDDVKGRFTVSRDNARNNLFLQMSHLRSEDTGIYYCSRDRWPYYFDFWGRGTTLTVSS
VL: DIQMTQSPTSLSVSVGETVTITCRISENIYSNLAWYQQKEGKSPQLLVYAATKLADGVPSRFSGSGSGTQYSLKINSLQSEDFGNYYCQHFWTTPRTFGGGTKVEIK
B2: 48A5 (antibody, V domains shown)
VH: QEQLEESEGGLFKPTETLTLTCTVSGFSLSYDITWVRQAPGNGLEWIGTIDTSSNTYHATWAKSRSTITKNTNLNTVTLKMTSLTAADTATYFCARGGVHAYAYAPAAFDPWGPGTLVTISS
VL: APVLTQTPSPVSAAVGGTVTISCQSSQSVYNDAYLAWYQQKPGQPPKLLIYLASTLASGVPSRFSGSGSGTQFTLTISGVQCEDAATYYCQGAYYSNDWYYVFGGGTEVVVK
B3: 43F5 (antibody, V domains shown)
VH: QSLEESGGRLVTPGTPLTLTCKASGFSLSNYWMSWVRQAPGKGLEWIGFITSSDNTYYASWAKGRFTISKASSTTVGLKMTSPTTEDTATYFCARDISGINSVVLWGQGTLVTVSS
VL: DVVMTQTPASVSEPVGGTVTINCQASQSIDSYLSWYQQKPGQPPKFLIYGASNLASGVPSRFKGSRSGTEYTLTISDLECADAATYYCQCTDYSINYIGAFGGGTKVVVE

Legend:
[1] = biological target: T1, mouse IL1RAP (mouse, UniProt Q61730); assay: ELISA
T1 chain: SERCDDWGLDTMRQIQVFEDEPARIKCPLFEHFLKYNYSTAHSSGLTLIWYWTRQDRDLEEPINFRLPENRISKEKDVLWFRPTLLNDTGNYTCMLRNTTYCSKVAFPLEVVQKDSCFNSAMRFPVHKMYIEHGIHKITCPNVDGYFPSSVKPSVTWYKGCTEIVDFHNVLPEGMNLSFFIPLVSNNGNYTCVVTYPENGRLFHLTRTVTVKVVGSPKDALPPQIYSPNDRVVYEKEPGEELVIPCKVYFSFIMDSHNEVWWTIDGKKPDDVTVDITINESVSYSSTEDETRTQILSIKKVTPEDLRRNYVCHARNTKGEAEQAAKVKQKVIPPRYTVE

[2] = biological target: human IL1RAP ectodomain (aa21-367) (human, UniProt Q9NPH3); assay: BLI
[3] = biological target: human IL1RAP Domain1+2 (aa21-234) (human, UniProt Q9NPH3); assay: ELISA
[4] = biological target: T2, rat IL1RAP (rat, UniProt Q63621); assay: ELISA
T2 chain: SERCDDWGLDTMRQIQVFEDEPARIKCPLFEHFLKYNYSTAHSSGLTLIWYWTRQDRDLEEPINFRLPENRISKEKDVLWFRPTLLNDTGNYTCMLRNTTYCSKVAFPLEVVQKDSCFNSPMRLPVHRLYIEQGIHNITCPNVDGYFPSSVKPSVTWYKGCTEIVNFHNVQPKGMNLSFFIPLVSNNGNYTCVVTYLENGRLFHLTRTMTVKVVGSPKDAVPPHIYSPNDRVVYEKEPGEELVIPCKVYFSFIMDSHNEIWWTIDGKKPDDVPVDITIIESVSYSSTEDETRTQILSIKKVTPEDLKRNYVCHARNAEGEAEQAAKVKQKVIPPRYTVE

Binder	binding result [1]	Kd [2] [pM]	binding result [3]	binding result [4]
B1	no binding	285	no binding	no binding
B2	no binding		no binding	no binding
B3			no binding	
